One experiment has as its target PsnB. The experiment in a line: crystal structure.
Experiment [1] addresses MP variants with one or two Glu-to-Ala mutations. The experiment is described as follows: fluorescence polarisation. (Polarisation of emitted light reports the rotation of a fluorescent probe.)
The target of experiment [2] is fluorophore-labeled core peptide Fl_PsnA2(28-38). The experiment is described as follows: fluorescence polarisation.
Experiment [3] addresses fluorophore-labeled minimal precursor peptide Fl_PsnA2(14-38). The experiment in a line: fluorescence polarisation.

This note sets out measurements from article doi:10.1101/2021.03.09.434688.

Several values for one entry are separate records, joined by “and”; a condition that tells them apart may be missing. Equal values may be shown once.

Usually stoichiometry N stands for a count of units in the complex or per binding partner. What is called Kd is a measure of binding affinity in units of concentration. The low end stands for a tighter complex, the high end for a looser complex. As for PsnB (enzyme), in the experiment with PsnB, the stoichiometry N was 2. Moreover, the fold reduction of the affinity against MP in experiment [1] is 10 fold and 4 fold. This substance also yielded a Kd in experiment [2] above 100 µM. Besides, in experiment [3], the fold enhancement of the interaction with ADP (1 mM) against no nucleotide was determined as 9 fold, the fold enhancement of the interaction with AMPPNP (1 mM) against no nucleotide was 2 fold and the fold tighter binding than the LP (Fl LP) worked out at 6 fold.
The substance leader-fused PsnB (enzyme) came in with a Kd in experiment [2] of 11 µM. That is a double-digit micromolar value.
